Experimental data published in patent CN114230662A (ANYUAN MEDICINE SCIENCE AND TECH SHANGHAI LIMITED COMPANY, dated 2022).

Key:
[1] = molecular target: T1, 重组人CD47蛋白(His-tag) (Acro Biosystems, 货号CD-H5227) (human, UniProt Q08722 19-139); experiment: Biacore T200 (called BLI in the filing), method as in example 2.5
T1 construct: Analyte (mobile phase) in the Biacore T200 measurements of 2.5 and 6.6; also called recombinant human CD47 protein (His-tag); not shown: His tag

[2] = molecular target: T2, 人CD47抗原 (recombinant human CD47, 北京义翘神州生物技术有限公司, 货号12283-HCCH) (human, UniProt Q08722 19-139); experiment: ELISA, coated human CD47 (0.2 μg/ml)
T2 construct: The catalogue number is printed only in 6.1 and 6.2; the construct is not described; also called 重组人CD47; human CD47 antigen

[3] = molecular target: T2, 人CD47抗原 (recombinant human CD47, …); experiment: blocking ELISA on coated human CD47 (2.0 μg/ml); competitor biotin-labelled human SIRPα (0.2 μg/ml)
[4] = molecular target: T3, human CD47 on cells (Raji-luc, CCRF-CEM, Jurkat, CHO/K1-hCD47) (human, UniProt Q08722 19-323); experiment: flow cytometry on CCRF-CEM cells
T3 construct: whole, on cells; also called 细胞表面的CD47

[5] = molecular target: T3, human CD47 on cells (Raji-luc, …); experiment: flow cytometry on CHO/K1-hCD47 cells
[6] = molecular target: T3, human CD47 on cells (Raji-luc, …); experiment: flow cytometry on Raji-luc and Jurkat cells; against control antibody AB12W2

T3 sequence (Q08722 19-323): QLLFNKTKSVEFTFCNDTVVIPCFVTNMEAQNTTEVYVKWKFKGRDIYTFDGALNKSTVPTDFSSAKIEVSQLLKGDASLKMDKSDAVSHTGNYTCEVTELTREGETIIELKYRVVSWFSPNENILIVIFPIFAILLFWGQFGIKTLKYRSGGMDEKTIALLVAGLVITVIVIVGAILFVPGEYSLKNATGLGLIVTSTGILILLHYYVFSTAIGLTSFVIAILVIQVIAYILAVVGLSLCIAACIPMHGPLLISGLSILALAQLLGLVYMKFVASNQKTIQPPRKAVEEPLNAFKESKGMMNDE
T2 sequence (Q08722 19-139 limits assumed): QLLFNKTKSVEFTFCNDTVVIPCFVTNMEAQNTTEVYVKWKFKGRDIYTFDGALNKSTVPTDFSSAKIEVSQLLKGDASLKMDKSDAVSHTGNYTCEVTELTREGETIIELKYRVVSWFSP
T1 sequence (Q08722 19-139 limits assumed): as above

B1: AB12W4 (antibody, human IgG4 S228P, kappa, V domains shown)
VH: QIQLVQSGAEVVKPGASVKISCKASGYTFTDYYINWVKQAPGQRLEWIGWIYPGSGNTKHNQKFQGKATLTVDTSSSTAYMELSSLRSEDTAVYFCARRGTYYYGSSSDGFPYWGQGTLVTVSS
VL: QIVLTQSPATMSASPGERVTISCRASSSVYYMYWYQQKPGQSPRPWIYRTSNLATGVPARFSGSGSGTSYSLTISSMEPEDFATYYCQQYHSYPLTFGQGTKLEIKR
notes: Humanized from Mo2A11971 by resurfacing
- binding result [1]: binds

B2: AB12W2 (antibody, V domains shown)
VH: QMQLVQSGAEVKKTGSSVKVSCKASGFNIKDYYLHWVRQAPGQALEWMGWIDPDQGDTEYAQKFQDRVTITRDRSMSTAYMELSSLRSEDTAMYYCNAAYGSSSYPMDYWGQGTTVTV
VL: NIQMTQSPSAMSASVGDRVTITCKASQDIHRYLSWFQQKPGKVPKHLIYRANRLVSGVPSRFSGSGSGTEFTLTISSLQPEDFATYYCLQYDEFPYTFGGGTKVEIK
notes: Humanized anti-human CD47 control antibody with the variable regions of Celgene's CC-90002 (per CN104271757B); it was detected with anti-human IgG; also called CC-90002 (source of the variable regions); 对照抗体AB12W2
- EC50 [2]: 0.0092 µg/mL
- EC50 [3]: 1.02 µg/mL
- EC50 [4]: 0.157 µg/mL

B3: AB12W3 (antibody, human IgG4 S228P, kappa, V domains shown)
VH: EVQLVQSGAEVVKPGATVKISCKASGYSFTDYFMTWMKQSPGKSLEWIGRINPYNGETFYNQKFQGKATLTVDKSSTTAHMELSSLRSEDSAVYYCGRGGTAGTDYWGQGTLLTVSS
VL: DVLLTQSPLSLPVTLGQPASISCRSSQSVVRSNGNTYLEWYLQKPGQSPRLLINKVSRRFSGVPDRFSGSGSGSEFTLKISRVEAEDVGIYYCFQGSHVPYTFGQGTKLEIKR
notes: Humanized from Mo2A1621 by resurfacing; Expressed in CHO cells
- EC50 [2]: 0.0112 µg/mL
- EC50 [5]: 0.461 µg/mL
- EC50 [3]: 1.17 µg/mL

B4: AB12W6 (antibody, human IgG4 S228P, kappa)
heavy: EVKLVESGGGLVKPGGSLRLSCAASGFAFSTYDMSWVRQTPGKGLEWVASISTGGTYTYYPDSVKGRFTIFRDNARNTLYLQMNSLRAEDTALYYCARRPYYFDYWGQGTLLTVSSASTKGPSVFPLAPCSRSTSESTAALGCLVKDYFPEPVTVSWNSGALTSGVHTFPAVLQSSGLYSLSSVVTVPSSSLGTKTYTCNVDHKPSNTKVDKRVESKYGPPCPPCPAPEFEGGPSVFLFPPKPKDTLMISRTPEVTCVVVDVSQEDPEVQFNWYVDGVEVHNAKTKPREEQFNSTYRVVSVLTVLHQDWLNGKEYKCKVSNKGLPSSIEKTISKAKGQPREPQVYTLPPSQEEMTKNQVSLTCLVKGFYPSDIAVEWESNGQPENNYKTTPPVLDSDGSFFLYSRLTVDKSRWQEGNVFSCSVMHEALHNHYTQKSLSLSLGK
light: DIKMTQSPSSKSASVGERVTITCQASQDINNYLSWFQQKPGKAPKTLIYRANRLMTGVPSRFSGSGSGQDFSLTISSLQPEDMGIYYCLQFDDFPLTFGQGTKLEIKRTVAAPSVFIFPPSDEQLKSGTASVVCLLNNFYPREAKVQWKVDNALQSGNSQESVTEQDSKDSTYSLSSTLTLSKADYEKHKVYACEVTHQGLSSPVTKSFNRGEC
notes: Humanized from Mo2A21331 by resurfacing
- EC50 [2]: 0.0128 µg/mL
- EC50 [5]: 0.217 µg/mL
- EC50 lower than that of the control antibody AB12W2 [6]: 50%
- EC50 [3]: 1.29 µg/mL

B5: AB12W9 (antibody)
heavy: EVKLVESGGGLVKPGGSLRLSCAASGFAFSTYDMSWVRQTPGKGLEWVASISTGGTYTYYPDSVKGRFTIFRDNARNTLYLQMNSLRAEDTALYYCARRPYYFDYWGQGTLLTVSSASTKGPSVFPLAPSSKSTSGGTAALGCLVKDYFPEPVTVSWNSGALTSGVHTFPAVLQSSGLYSLSSVVTVPSSSLGTQTYICNVNHKPSNTKVDKKVEPKSCDKTHTCPPCPAPELLGGPSVFLFPPKPKDQLMISRTPEVTCVVVDVSHEDPEVKFNWYVDGVEVHNAKTKPREEQYASTYRVVSVLTVLHQDWLNGKEYKCKVSNKALPAPIEKTISKAKGQPREPQVYTLPPSREEMTKNQVSLTCLVKGFYPSDIAVEWESNGQPENNYKTTPPVLDSDGSFFLYSKLTVDKSRWQQGNVFSCSVLHEALHNHYTQKSLSLSPGK
light: B4 light
notes: as for B4
- EC50 [5]: 0.252 µg/mL
- EC50 [4]: 0.162 µg/mL
